Residue numbers refer to the chain shown, from its start.

Broadly, the EC50 is the concentration that produces a half-maximal response. Read a high EC50 as a less potent agent.

B1: CA13 (antibody, human IgG1, kappa, V domains shown)
VH: EVQLVESGGGVVQPGRSLRLSCAASGFTFSSYAMHWVRQAPGKGLEWVAVISYDGSNKYYADSVKGRFTISRDNSKNTLFLQMNSLRAEDTAVYYCARDVYHYGSRSPYYYGMDVWGQGTTVTVSS
VL: DIVMTQSPSSLSASVGDRVTITCRASQGISNYLAWFQQKPGKVPKLLIYAASTLQSGVPSRFSGSGSGTDFTLTISSLQPEDVATYYCQKYNSAPFTFGPGTKVDIKR
notes: Intact IgG1 from fully human antibody-transgenic mice
B2: CA518 (antibody, human IgG1, kappa, V domains shown)
VH: B1 VH with Y60H, A97V
VL: B1 VL with V3Q, L11V, N31S, Y32W, F36Y, V43A, T53S
notes: Intact IgG1
B3: CA67 (antibody, human IgG1, kappa, V domains shown)
VH: B1 VH with F80Y
VL: B1 VL with V3Q, G28A, F36Y, Q55H, S56P
notes: Intact IgG1
B4: reference antibody hL49 (antibody, human IgG1, kappa, V domains shown)
VH: QVQLQESGPGLVKPSETLSLTCTVSGDSITSGYWNWIRQPPGKGLEYIGYISDSGITYYNPSLKSRVTISRDTSKNQYSLKLSSVTAADTAVYYCARRTLATYYAMDYWGQGTLVTVSS
VL: DFVMTQSPLSLPVTLGQPASISCRASQSLVHSDGNTYLHWYQQRPGQSPRLLIYRVSNRFSGVPDRFSGSGSGTDFTLKISRVEAEDVGVYYCSQSTHVPPTFGQGTKLEIKR
notes: also called H149; hL49 analogy
B5: BA352 (antibody, human IgG1, kappa, V domains shown)
VH: EVQLVESGGGVVQPGRSLRLSCAASGFTFSSYAMHWVRQAPGKGLEWVAVISYDGSNKYYADSVKGRFTISRDNSKNTLYLQMNSLRAEDTAVYYCARGPYLAAAGTALTFDIWGQGTMVTVSS
VL: DIQMTQSPSAMSASVGDRVTITCRASQGINNYLAWFQQKPGKVPKRLIYAASSLQSGVPSRFSGSGSGTEFTLTISSLQPEDFATYYCLQHNSYPFTFGPGTKVDIKR
notes: Intact IgG1
B6: CA149 (antibody, human IgG1, kappa, V domains shown)
VH: EVQLVESGGGVVQPGRSLRLSCAASGFTFSSYAMHWVRQAPGKGLEWVAVISFDGSNKYYTDSVKGRFTISRDNSKNTLYLQMNSLRAEDTAVYYCAREVPYYYGSGPFDYWGQGTLVTVSS
VL: EIVLTQSPATLSVSPGERATLSCRASQSVSSNLAWYQQKPGQAPRHLIDGASSRASGIPDRFSGSGSGTDFTLTISRLEPEDFAVYYCQQYGSSPPFTFGPGTKVDIKR
notes: Intact IgG1; also called CA149 antibody
B7: CA185 (antibody, human IgG1, kappa, V domains shown)
VH: B6 VH with F53Y, T61A
VL: EIVLTQSPGTLSLSPGERATLSCRASQSVSSSSLAWYQQKPGQAPRHLIDGASSRASGIPDRFSGSGSGTDFTLTISRLEPEDFAVYYCQQYGSSYTFGQGTKVDIKR
notes: Intact IgG1

For one test, the target named is T1, Human CD228 protein (human, UniProt P08582 20-708, limits assumed).
T1 construct: Recombinant protein made in CHO cells, purified over a Ni column; The printed entry begins with the leader (MRGPSG...) and ends with ten His; also called hCD228; CD228-His protein
T1 sequence: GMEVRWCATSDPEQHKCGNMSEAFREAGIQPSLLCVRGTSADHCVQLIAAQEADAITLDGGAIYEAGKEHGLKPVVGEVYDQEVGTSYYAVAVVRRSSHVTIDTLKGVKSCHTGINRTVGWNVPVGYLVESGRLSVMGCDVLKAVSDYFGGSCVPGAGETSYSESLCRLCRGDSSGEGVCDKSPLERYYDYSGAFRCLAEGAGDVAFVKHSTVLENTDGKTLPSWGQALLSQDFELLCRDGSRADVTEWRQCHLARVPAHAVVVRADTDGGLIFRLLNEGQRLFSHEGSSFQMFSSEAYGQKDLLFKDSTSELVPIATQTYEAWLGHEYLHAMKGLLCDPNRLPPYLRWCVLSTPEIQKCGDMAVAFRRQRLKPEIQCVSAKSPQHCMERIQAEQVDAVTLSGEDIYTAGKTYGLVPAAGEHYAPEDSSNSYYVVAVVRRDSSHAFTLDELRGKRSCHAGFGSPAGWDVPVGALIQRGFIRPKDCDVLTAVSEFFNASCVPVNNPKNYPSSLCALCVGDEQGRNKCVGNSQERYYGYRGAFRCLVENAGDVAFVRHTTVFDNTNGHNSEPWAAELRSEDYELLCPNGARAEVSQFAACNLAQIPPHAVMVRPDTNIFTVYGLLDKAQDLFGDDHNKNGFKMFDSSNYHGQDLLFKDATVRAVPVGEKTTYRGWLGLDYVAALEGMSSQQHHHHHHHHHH
As to the kind of experiment: Octet competition on His-chip CD228; competitor: CA149. The method, then: (§1) CD228 proteins were immobilized on His chips at 10 μg/mL with a threshold of 0.5 nm. The first CD228 antibody (30 μg/mL) was immobilized, and the competitive binding of the second CD228 antibody (30 μg/mL) was analyzed. The Octet 8K system was used to analyze the response of antibody 2 and to determine whether antibody 1 and antibody 2 were in competition.
In general terms: Biolayer interferometry detects binding as a change in optical thickness at a sensor tip.
B1 registered an Octet response value of -0.0059.

For the molecule B2, the Octet response value was -0.0041.

In turn, B3 showed an Octet response value of -0.012.

With B4, the Octet response value was 0.435.

For the molecule B5, the Octet response value was found to be 0.416.

B6 came in with an Octet response value of 0.0039.

As for B7, the Octet response value worked out at 0.0089.

Another test deals with T1, Human CD228 protein. As to the kind of experiment: ELISA, plate coated with human CD228 protein. The method, then: Human CD228 protein (prepared by Boan, 20201014, SEQ ID NO: 41) was diluted to 0.1 μg/mL with a carbonate-buffered saline (hereinafter referred to as CBS) at pH 9.6. Microplates were coated with the protein at 100 μL/well, and incubated at 4° C. overnight. After washing, the microplates were blocked with skimmed milk powder. The plates were washed, before antibodies diluted with PBST (phosphate-buffered saline, Solarbio P1010, +0.05% Tween20) were added at 100 μL/well. The diluted antibodies were intact antibodies comprising Fc, Fab and the constant region serially 3-fold diluted from 0.1 μg/mL to 8 concentrations with PBST. After washing the plates, goat anti-human IgG (H+L)/HRP (diluted at 1:5000, KPL, 474-1006) was added at 100 μL/well, and the plates were incubated at 37° C. for 1 h. After washing the plates, TMB (Beijing Makewonderbio, 1001) was added at 100 μL/well for chromogenesis, and after 10 min, 50 μL of 2 M H₂SO₄ was added to stop the chromogenesis. OD450 was measured on a microplate reader. The antibody hL49 targeting CD228 from Seagen was used as a reference antibody in this study and the following studies.
On the technique in general: ELISA stands for enzyme-linked immunosorbent assay.
Turning to B1, the EC50 is 3.2 ng/mL.

Molecule B2 gave an EC50 of 4.3 ng/mL.

Regarding B3, the EC50 came to 3.8 ng/mL.

B4: the EC50 was 27.8 ng/mL.

As to B5, the EC50 was 6.1 ng/mL.

With B6, the half-maximal effective concentration (EC50) stood at 3.6 ng/mL.

For B7, a half-maximal response (EC50) required 3.9 ng/mL.

In a further test the target is T1, Human CD228 protein. As to the kind of experiment: Octet competition on His-chip CD228; competitor: hl49. The method, then: as §1
For the molecule B1, the Octet response value amounted to 0.353.

B2 displayed an Octet response value of 0.281.

For B3, the Octet response value is 0.33.

In turn, B4 yielded an Octet response value of 0.0169.

B5: the Octet response value was 0.0006.

Molecule B6 returned an Octet response value of 0.348.

B7 registered an Octet response value of 0.356.

The next test concerns the target T1, Human CD228 protein. As to the kind of experiment: Octet competition on His-chip CD228; competitor: CA13. The method, then:
as §1
Regarding B1, the Octet response value is -0.0011.

Take B2: the Octet response value was found to be 0.006.

In turn, B3 gave an Octet response value of -0.0065.

Molecule B4 had an Octet response value of 0.418.

In turn, B5 had an Octet response value of 0.424.

B6 had an Octet response value of 0.0117.

In the case of B7, the Octet response value amounted to 0.0046.

For another test, the target named is T1, Human CD228 protein. As to the kind of experiment: Octet competition on His-chip CD228; competitor: CA185. The method, then: as §1
(§2) The final competition analysis was conducted using the following calculation method: 1—response value/blank value.
Regarding B1, the “competition (1-response value/blank value)” value was 101%.

Take B2: the “competition (1-response value/blank value)” value is 101%.

As to B3, the “competition (1-response value/blank value)” value turned out to be 103%.

On to B4, for which the “competition (1-response value/blank value)” value was -5%.

As for B5, the “competition (1-response value/blank value)” value was -3%.

In the case of B6, the “competition (1-response value/blank value)” value came out at 98%.

Regarding B7, the “competition (1-response value/blank value)” value amounted to 99%.

The target of a further test is T1, Human CD228 protein. As to the kind of experiment: Octet, CD228 on His chip; PBST buffer in place of the first antibody. The method, then: as §1
Take B1: the “Octet response value (blank value, PBST buffer)” value stood at 0.393.

Consider B2, for which the “Octet response value (blank value, PBST buffer)” value was found to be 0.442.

In the case of B3, the “Octet response value (blank value, PBST buffer)” value was 0.425.

For the molecule B4, the “Octet response value (blank value, PBST buffer)” value came out at 0.347.

For B5, the “Octet response value (blank value, PBST buffer)” value is 0.393.

Regarding B6, the “Octet response value (blank value, PBST buffer)” value was determined as 0.409.

On to B7, for which the “Octet response value (blank value, PBST buffer)” value amounted to 0.411.

The next test addresses T2, Mouse CD228 protein (mouse, UniProt Q9R0R1 20-708, limits assumed).
T2 construct: Recombinant His-tagged protein from CHO cells
T2 chain: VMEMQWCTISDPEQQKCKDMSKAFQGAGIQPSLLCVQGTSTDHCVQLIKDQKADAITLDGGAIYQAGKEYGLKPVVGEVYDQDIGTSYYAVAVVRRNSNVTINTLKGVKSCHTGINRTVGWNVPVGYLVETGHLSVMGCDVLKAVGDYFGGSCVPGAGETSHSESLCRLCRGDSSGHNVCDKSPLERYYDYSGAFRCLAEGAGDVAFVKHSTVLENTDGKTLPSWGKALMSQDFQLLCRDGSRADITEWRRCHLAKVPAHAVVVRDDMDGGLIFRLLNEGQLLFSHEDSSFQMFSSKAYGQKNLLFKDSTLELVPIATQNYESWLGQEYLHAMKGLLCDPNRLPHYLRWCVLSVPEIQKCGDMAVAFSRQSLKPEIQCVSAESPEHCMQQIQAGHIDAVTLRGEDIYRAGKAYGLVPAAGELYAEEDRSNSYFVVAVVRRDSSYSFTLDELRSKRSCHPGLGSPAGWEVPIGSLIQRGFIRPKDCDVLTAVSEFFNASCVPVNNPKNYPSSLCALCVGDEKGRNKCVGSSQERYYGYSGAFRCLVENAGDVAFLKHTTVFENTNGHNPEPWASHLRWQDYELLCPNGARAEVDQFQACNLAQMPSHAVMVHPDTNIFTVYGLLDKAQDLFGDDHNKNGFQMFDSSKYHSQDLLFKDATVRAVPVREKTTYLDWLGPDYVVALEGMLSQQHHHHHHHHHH
As to the kind of experiment: SPR, BIAcore 8K; antibody on ProA chip, CD228 protein as analyte. The method, then: The binding kinetics of the antibodies to the CD228 proteins was measured using the BIAcore 8K system based on surface plasmon resonance (SRP). CD228 antibodies were immobilized on ProA chips at a concentration of 2 μg/mL, and the binding activity of the CD228 antibodies to human, monkey, and mouse CD228 proteins was analyzed. Human, monkey and mouse CD228 proteins were serially 2-fold diluted from 50 nM to 5 concentrations with an HBS-EP+ buffer. The binding kinetics of the CD228 proteins were analyzed by Biacore, and the affinity activity KD values were calculated by fitting.
On the technique in general: Surface plasmon resonance follows binding to a sensor surface in real time, without labels.
Regarding B1, the binding result is on record as “no binding”.

Turning to B2, the binding result is on record as “no binding”.

With B3, the binding result is “no binding”.

For B4, the binding result was “no binding”.

As for B5, the binding result is “no binding”.

In the case of B6, the binding result is reported as “no binding”.

B7: the binding result is given as “no binding”.

For a further test, the target named is T1, Human CD228 protein. As to the kind of experiment: Octet competition on His-chip CD228; competitor: hl49. The source holds these as a separate data set. The method, then:
as §1, §2
Turning to B1, the “competition (1-response value/blank value)” value is -2%.

With B2, the “competition (1-response value/blank value)” value stood at 19%.

Take B3: the “competition (1-response value/blank value)” value was 5%.

Turning to B4, the “competition (1-response value/blank value)” value was found to be 95%.

For B5, the “competition (1-response value/blank value)” value was found to be 100%.

In the case of B6, the “competition (1-response value/blank value)” value was determined as 0%.

Regarding B7, the “competition (1-response value/blank value)” value was -3%.

Source of the values: US20250121082A1 (SHANDONG BOAN BIOTECHNOLOGY, published 2025).
